This assay deals with TRPV1 disordered region polypeptide (UniProt Q8NER1). Nature of the assay: modified sandwich ELISA, fluorescence grade (key: 50000 < x < 100000, Weak binding).

B1: S068 (designed binder)
chain: GDTRPRFLWQLKFECHFFNGTERVRLLERCIYNQEESVRFDSDVGEYRAVTELGRPDAEYWNSQKDLLEQRRAAVDTYCRHNYGVGESFTVQRRVEPKVTVYPSKTQPLQHHNLLVCSVSGFYPGSIEVRWFRNGQEEKAGVVSTGLIQNGDWTFQTLVMLETVPRSGEVYTCQVEHPSVTSPLTVEWRASGGGGSGGGGSGGGGIKEEHVIIQAEFYLNPDQSGEFMFDFDGDEIFHVDMAKKETVWRLEEFGRFASFEAQGALANIAVDKANLEIMTKRSNYTPITNVPPEVTVLTNSPVELREPNVLICFIDKFTPPVVNVTWLRNGKPVTTGVSETVFLPREDHLFRKFHYLPFLPSTEDVYDCRVEHWGLDEPLLKHWEFDAPSGGSHHHHHHLE
In turn, B1 gave a fluorescent signal (fluorescentsignal) of 50000 to 100000.
